The record followed here is patent US20170137818A1, “APTAMER INHIBITING BIOLOGICAL ACTIVITY OF AUTOTAXIN BY BINDING WITH AUTOTAXIN, AND USE THEREOF” (RIBOMIC INC., priority 2014, published 2017).

Series [1] deals with T1, autotaxin (Homo sapiens, UniProt Q13822).
T1 construct: His; purchased R&D
The series can be described thus: NPP2 inhibitory assay (pNP-TMP substrate). In kind it is biochemical. The conditions noted are these: mean of 2-3 measurements ± standard deviation, >1.0 = no inhibitory activity up to 1.0 μM.
Description: Whether an aptamer inhibits the enzyme activity of autotaxin can be evaluated, for example, by the following test. As a substrate of autotaxin, phosphodiester bond-containing synthetic substrate p-nitrophenyl thymidine 5′-monophosphate (pNP-TMP) (SIGMA) is used. A phosphodiester bond is cleaved by hydrolysis, and p-nitrophenol is liberated. The p-nitrophenol develops a yellow color, and the color is detected. For the assay, a 96-well plate (96-Well EIAsurasshuRIA Polystyrene Plates, Costar) was used, and the amount of the reaction mixture was 200 μL. Nucleic acid was prepared in solution A (see below-mentioned Example 1) (100 μL), pNP-TMP (20 μL) adjusted to 10 mM in the reaction mixture A was added, and the mixture was stirred well and heated at 37° C. for 5 min. On the other hand, 6 ng of autotaxin (Recombinant Human, manufactured by R&D) diluted with solution A was prepared (80 μL), and heated at 37° C. for 5 min. After heating, they were mixed to start an enzyme reaction. The final autotaxin concentration in the reaction solution was 0.3 nM, and the final substrate concentration was 1 mM. A plate containing the reaction mixture was heated at 37° C. for 24 hr, placed in a microplate reader SpectraMax190 (manufactured by Molecular Devices) and the absorbance was determined at wavelength 405 nm. The absorbance when nucleic acid is not added as 100% (A0), an enzyme activity rate was determined from the absorbance (A) of each test substance and according to the following formula.
Enzyme activity rate=(A/A0)×100
(§1) The concentration (IC50) of an inhibitor necessary for inhibiting the enzyme activity by 50% was determined.
Whether these nucleic acids show an autotaxin inhibitory activity was evaluated by the following method. As a substrate of autotaxin, phosphodiester bond-containing synthetic substrate p-nitrophenyl thymidine 5′-monophosphate (pNP-TMP) (SIGMA) was selected (hereinafter to be referred to as NPP2 inhibitory assay). A phosphodiester bond is cleaved by hydrolysis, and p-nitrophenol is liberated. The p-nitrophenol develops a yellow color, and the color is detected. For the assay, a 96-well plate (96-Well EIA/RIA Polystyrene Plates, Costar) was used, and the amount of the reaction mixture was 200 μL. As the reaction mixture, solution A was used. Nucleic acids were prepared in solution A (100 μL), pNP-TMP (20 μL) adjusted to 10 mM in the reaction mixture A was added, and the mixture was stirred well and heated at 37° C. for 5 min. On the other hand, 6 ng of autotaxin diluted with solution A was prepared (80 μL), and heated at 37° C. for 5 min. After heating, they were mixed to start enzyme reaction. The final autotaxin concentration in the reaction solution was 0.3 nM, and the final substrate concentration was 1 mM. A plate containing the reaction mixture was heated at 37° C. for 24 hr, placed in a microplate reader SpectraMax190 (manufactured by Molecular Devices) and the absorbance was determined at wavelength 405 nm. The absorbance when nucleic acids are not added as 100% (A0), an […] was determined from the absorbance (A) of each test substance and according to the following formula.
as §1

The target in series [2] is T1, autotaxin. Description: Biacore surface plasmon resonance, autotaxin immobilized on CM4 chip, nucleic acid as analyte. In kind it is binding. To be noted: maximum RU relative to SEQ ID NO: 22. A general note: Surface plasmon resonance follows binding to a sensor surface in real time, without labels.
The target in series [3] is T1, autotaxin. The series can be described thus: Biacore surface plasmon resonance, nucleic acid immobilized on SA chip, autotaxin as analyte. The series is classed as binding. The conditions noted are these: nucleic acid immobilized about 1500 RU, autotaxin 0.02 μM as analyte; maximum RU relative to SEQ ID NO: 10. The protocol:
Biacore T100 manufactured by GE Healthcare is used for the measurement of binding strength. In one measurement method, an aptamer is first immobilized on a sensorchip. The immobilization amount is set to about 1500 RU. An autotaxin solution as an analyte prepared to 0.020 μM is injected by 20 μL, and binding of the autotaxin to the aptamer is detected.
All nucleic acids shown in SEQ ID NOs: 4-10 were produced by chemical synthesis. The binding activity of these nucleic acids to autotaxin was evaluated by the surface plasmon resonance method. For the measurement, Biacore T100 manufactured by GE Healthcare was used. The SA chips with streptavidin immobilized thereon were used as the sensor chips. Binding thereto was about 1500 RU of 16 nucleotide Poly dT of which biotin was bound to the 5′-terminus. The nucleic acids used as a ligand were added with Poly A (16 nucleotides) to the 3′-terminus, and were immobilized on SA chips by T-A annealing. The nucleic acids (20 μL) were injected at a flow rate of 20 μL/min to immobilize about 1500 RU of the nucleic acids. An autotaxin for analyte was prepared at 0.02 μM, and 20 μL thereof was injected. As a running buffer, solution A (mixed solution of 145 mM sodium chloride, 5.4 mM potassium chloride, 1.8 mM calcium chloride, 0.8 mM magnesium chloride, 20 mM Tris (pH 7.6), 0.05% Tween20) was used.

Where [4] appears, read: Table 1, autotaxin 0.3 nM, pNP-TMP 1 mM, 37° C. 24 hr.

B1: 21 (nucleic acid)
chain: ACACTCACAGGCGCTGGCCACCACTGCACCGGAACCGCGAATGTGGTCGTGCATGGCCGCTAGT
modifications: aptamer; DNA, backbone and methylation of C not given here
Molecule B1 displayed an IC50 in series [1] (Table 3) of 28 ± 11 nM. Further, the “Binding activity by Biacore” value in series [2] is given as “+ (not less than that)”.

B2: 20 (nucleic acid)
chain: ACACTCACAGGCGCTGGGGTACGCTCGGAACCGAGGCAATTGGTCAGCGTGCATGGCCGCTAGT
modifications: aptamer; DNA, backbone and methylation of C not given here
In series [1] (Table 3), B2 registered a 50% inhibitory concentration (IC50) of 37 ± 2 nM. Besides, the “Binding activity by Biacore” value in series [2] is given as “+ (not less than that)”.

B3: 22 (nucleic acid)
chain: ACACTCACAGGCGCTGGCCGGAACCGTGCATATGGTCGCCAGCACATCGTGCATGGCCGCTAGT
modifications: aptamer; DNA, backbone and methylation of C not given here
As for B3, in series [1] (Table 3), the IC50 stood at 30 ± 11 nM. For the same molecule, the “Binding activity by Biacore” value in series [2] is given as “+ (not less than that)”.

B4: 6 (nucleic acid)
chain: GTGGTCTAGCTGTACTCGGAACCGTACTCAACGGTCAGTACCTTTGCGCCGCAGCAAGCCACAGTCAACGAGCTA
modifications: DNA, backbone and methylation of C not given here
As to B4, in series [3], the “Binding activity by Biacore” value is reported as “+ (not less than that)”. Besides, the midpoint of inhibition in series [1] (setting [4]), the IC50, lay at 20 nM.

B5: 24 (nucleic acid)
chain: ACACTCACAGGCGCTGGCGAGTCGGAACCGAGCCGATTGGTCACTCGCGTGCATGGCCGCTAGT
modifications: aptamer; DNA, backbone and methylation of C not given here
In series [1] (Table 3), B5 showed an IC50 of 32 ± 4.2 nM. Also, the “Binding activity by Biacore” value in series [2] is recorded as “+ (not less than that)”.

B6: 4 (nucleic acid)
chain: GTGGTCTAGCTGTACTCTCCGGAACCAGAGCAATTTGGTCGAGCGCTATCGGATGGTCCACAGTCAACGAGCTA
modifications: aptamer; DNA, backbone and methylation of C not given here
For B6, in series [3], the “Binding activity by Biacore” value was “+ (not less than that)”. In addition, the IC50 in series [1] (setting [4]) came out at 16 ± 6 nM.

B7: 9 (nucleic acid)
chain: GTGGTCTAGCTGTACTCAGGCCGGAACCGGTGAAATTGGTCGCCTAATAAGCGAAATCCACAGTCAACGAGCTA
modifications: aptamer; DNA, backbone and methylation of C not given here
As for B7, in series [3], the “Binding activity by Biacore” value is listed as “+ (not less than that)”. In addition, the IC50 in series [1] (setting [4]) worked out at 36 ± 4 nM.

B8: 10 (nucleic acid)
chain: GTGGTCTAGCTGTACTCGCCGGAACCGTACTATGGTCGCGTTGTATGACGCTTGTATCCACAGTCAACGAGCTA
modifications: aptamer; DNA, backbone and methylation of C not given here
Regarding B8, in series [3], the “Binding activity by Biacore” value is “+ (not less than that)”. This molecule also gave an IC50 in series [1] (setting [4]) of 21 ± 6 nM.

B9: 5 (nucleic acid)
chain: GTGGTCTAGCTGTACTCATGGACGGAACCAGAATACTTTTGGTCTCCATTGAGTACGCCACAGTCAACGAGCTA
modifications: aptamer; DNA, backbone and methylation of C not given here
In the case of B9, the “Binding activity by Biacore” value in series [3] was “+ (not less than that)”. Also, the IC50 in series [1] (setting [4]) is 11 ± 5 nM.

B10: 8 (nucleic acid)
chain: GTGGTCTAGCTGTACTCCGAAAGCCGGAACCGTGCCAATGGTCGCTACTTCAGCTCCCCACAGTCAACGAGCTA
modifications: aptamer; DNA, backbone and methylation of C not given here
In the case of B10, the “Binding activity by Biacore” value in series [3] is “+ (not less than that)”. In addition, half-maximal inhibition in series [1] (setting [4]) (IC50) was put at 10 ± 2 nM.

B11: 23 (nucleic acid)
chain: ACACTCACAGGCGCTGGCACGGACCGGAACCGGGACGCTCGGTCGACCGTGCATGGCCGCTAGT
modifications: aptamer; DNA, backbone and methylation of C not given here
For the molecule B11, it took 75 nM to reach half-maximal inhibition in series [1] (Table 3) (IC50). For the same molecule, in series [2], the “Binding activity by Biacore” value is given as “+ (not less than that)”.

B12: 25 (nucleic acid)
chain: ACACTCACAGGCGCTGGCGACGTCGGAACCGTGTACCATGGTCACGTCGTGCATGGCCGCTAGT
modifications: aptamer; DNA, backbone and methylation of C not given here
Turning to B12, the midpoint of inhibition in series [1] (Table 3), the IC50, lay at 31 ± 5.7 nM. Also, in series [2], the “Binding activity by Biacore” value is on record as “+ (not less than that)”.

As a reminder, the IC50 is the midpoint of a concentration-inhibition curve. Read a low IC50 as higher potency.
